Laboratory results from patent US20260209301A1, “Galanin-2 Receptor Agonists” (LIFEARC, priority 2022, published 2026).

Assays:
[1] = system: mouse chemotherapy-induced model of neuropathic pain; experiment: Oxaliplatin chemotherapy-induced neuropathic pain model, von Frey; assay type: in vivo; conditions: 0.1, 1 and 3 mg/kg i.p.; 4 hours post dose (day 5 after Oxaliplatin)
Procedure: Oxaliplatin-induced hypersensitivity: A single dose of Oxaliplatin was injected intraperitoneally (i.p.) at 10 mg/kg at a volume of 10 ml/kg. Oxaliplatin was dissolved in 5% dextrose to 1 mg/ml before use. Animals were injected in the same order in which they were tested.
Static mechanical tactile allodynia: Static mechanical (tactile) allodynia was assessed by measurement of withdrawal threshold using calibrated (force; g) von-Frey monofilaments (Touch-Test Sensory Evaluator; Scientific Marketing Associates) applied to the plantar surface of the hind paw. Animals were placed in individual Perspex boxes on a raised metal mesh for 30-40 min before the test. A series of graduated von Frey hairs (0.07, 0.16, 0.4, 0.6 and 1 g) was applied in sequence with a protocol of 1 sec on 1 sec off repeated 10 times. […] The force applied to the hind-paw of the animal to induce 5 responses out of 10 trials was recorded as paw withdrawal threshold (PWT).
Baseline PWT was assessed on three consecutive days (Day-3, Day-2 and Day-1). […]
Mechanical allodynia was re-assessed on Day 3 and 4 post-administration of a single dose of Oxaliplatin to monitor the development of allodynia. […]
Mechanical allodynia was re-assessed on Day 5 (4 hours post dose) and thereafter determined on Days 6 and 7 after administration of Oxaliplatin (i.e. 24 hours and 48 hours post FC2-13 treatment). […]

rat GalR2 = molecular target: T1, rat GalR2 (Rattus norvegicus, UniProt O08726); experiment: Calcium assay at orthologue receptor; assay type: cell-based; conditions: Table 8; Calcium assays; mean +/− standard deviation
T1 sequence (O08726 1-372): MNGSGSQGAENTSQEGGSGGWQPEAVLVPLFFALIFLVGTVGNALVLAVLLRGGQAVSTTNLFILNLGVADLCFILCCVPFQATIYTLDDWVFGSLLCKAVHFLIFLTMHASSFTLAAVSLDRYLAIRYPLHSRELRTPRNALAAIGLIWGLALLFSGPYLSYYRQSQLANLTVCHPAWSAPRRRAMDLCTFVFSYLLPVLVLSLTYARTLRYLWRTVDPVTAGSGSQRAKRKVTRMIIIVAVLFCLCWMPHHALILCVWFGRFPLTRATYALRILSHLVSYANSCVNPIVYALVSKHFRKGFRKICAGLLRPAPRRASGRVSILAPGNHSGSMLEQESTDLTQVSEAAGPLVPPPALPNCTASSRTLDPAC
Source text: These species were chosen as they represent potential downstream in vivo models to be used. […] Calcium imaging was used to define receptor activity.

GALR2 = molecular target: T2, GALR2 (Homo sapiens, UniProt O43603); experiment: Radioligand binding, [125I]galanin displacement on CHO GalR2 membranes; parameters: expressed in transfected cells; host or cells: CHO (Flp-In, pcDNA5/FRT); conditions: recombinant GalR2 membranes, FIG. 3
T2 sequence (O43603 1-387): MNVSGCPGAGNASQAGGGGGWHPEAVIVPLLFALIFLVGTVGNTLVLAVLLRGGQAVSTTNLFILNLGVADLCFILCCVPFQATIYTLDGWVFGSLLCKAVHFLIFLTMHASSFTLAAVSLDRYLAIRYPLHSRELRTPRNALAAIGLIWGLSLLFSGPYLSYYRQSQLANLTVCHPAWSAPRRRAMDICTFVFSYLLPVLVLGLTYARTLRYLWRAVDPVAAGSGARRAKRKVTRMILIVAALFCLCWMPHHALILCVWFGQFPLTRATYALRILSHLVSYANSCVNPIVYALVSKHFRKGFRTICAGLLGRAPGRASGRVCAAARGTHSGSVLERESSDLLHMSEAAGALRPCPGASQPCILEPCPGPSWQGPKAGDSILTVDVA
Procedure: Cell membrane homogenates (4 μg protein—from CHO cells expressing the GalR2 receptor) were incubated for 120 minutes at 22° C. with 0.05 nM [^125I] galanin in the absence or presence of test compound in a buffer containing 25 mM Tris-HCl (pH 7.4, 10 mM MgCl2 and 0.5% BSA. Non-specific binding was determined in the presence of 1 μM porcine galanin. Following incubation, samples were filtered rapidly under vacuum through glass fiber filters (GF/B, Packard) pre-soaked with 0.3% PEI and rinsed several times with ice cold 50 mM Tris-HCl using a 96 sample cell harvester (Unifilter, Packard). The filters are dried then counted for radioactivity in a scintillation counter (Topcount, Packard) using a scintillation cocktail (Microscint 0), Packard). The results are expressed as a percent inhibition of the control radioligand specific binding. The standard reference compound is porcine galanin which is tested in each experiment at several concentrations to obtain a competition curve from which its IC50 is generated.
Briefly, cell overexpressing recombinant GalR2 were used to for crude membrane preparations. Competition style binding assays were then used to monitor displacement of [125I]-Galanin using a range of concentrations of Gal-FC fusion. After a period of incubation data were expressed relative the maximum specific Galanin bound.

Substance | reversal of Oxaliplatin-induced mechanical hyperalgesia [1] | Rat GalR2 activity (rat GalR2) | pIC50, displacement of [125I]-Galanin binding (GALR2)
Gal2-13FC: galanin 2-13, AEAAAKEAAAKA linker, human IgG1 FC; SEQ ID NO: 7 | efficacious | 6.5 +/− 0.1 | –
Gal2-30FC: galanin 2-30, AEAAAKEAAAKA linker, human IgG1 FC; SEQ ID NO: 28 | – | – | 7.55
